Data taken from patent publication CN109879966A (PERSONGEN BIOMEDICINE SUZHOU CO LTD, dated 2019).

T1: CD19 (Biacore ligand coupled to the chip) (UniProt P15391 20-291, limits assumed)
T1 construct: also called 配体:CD19
T1 sequence (looked up): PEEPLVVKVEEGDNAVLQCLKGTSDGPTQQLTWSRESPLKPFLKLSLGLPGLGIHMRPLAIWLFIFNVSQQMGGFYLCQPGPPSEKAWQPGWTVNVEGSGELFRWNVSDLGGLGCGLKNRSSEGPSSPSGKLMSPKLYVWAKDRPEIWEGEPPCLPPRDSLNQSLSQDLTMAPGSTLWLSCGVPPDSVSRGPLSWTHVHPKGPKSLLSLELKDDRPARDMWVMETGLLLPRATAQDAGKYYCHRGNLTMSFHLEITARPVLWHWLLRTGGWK

B1: HM1711091-T1L1H4 (antibody, V domains shown)
VH: QVQLQESGPGLVAPSETLSLTCTVSGVSLPDYGVSWIRQPPRKGLEWIGVIWGSETTYYNSALKSRVTISVDTSKNQFSLKLSSVTAADTAVYYCAKHYYYGGSYAMDYWGQGTLVTVSS
VL: DIQMTQSPSSLSASVGDRVTITCRASQDISKYLNWYQQKPGKAPKLLIYHTSRLHSGVPSRFSGSGSGTDFTFTISSLQPEDIATYYCQQGNTLPYTFGGGTKVEI
notes: Full antibody (全抗) used in the Biacore assay; also called 人源化单抗T1L1H4; 人源化T1L1H4抗体
B2: HM1711091-T4L2H2 (antibody, V domains shown)
VH: QVTLRESGPALVKPTQTLTLTCTFSGVSLPDYGVSWIRQPPGKALEWLAVIWGSETTYYNSALKSRLTISKDTSKNQVVLTMTNMDPVDTATYYCAKHYYYGGSYAMDYWGQGTTVTVSS
VL: EIVLTQSPATLSLSPGERATLSCRASQDISKYLNWYQQKPGQAPRLLIYHTSRLHSGIPDRFSGSGSGTDFTLTISRLEPEDIAVYYCQQGNTLPYTFGQGTKLEI
notes: Full antibody (全抗) used in the Biacore assay; also called 人源化单抗T4L2H2; 人源化T4L2H2抗体

Molecular target: T1, CD19 (Biacore ligand coupled to the …)
Assay: Biacore SPR, CD19 coupled to chip, antibody as analyte 3.125-100 ug/ml

Row | Binder | Kd [nM] | koff [s⁻¹] | kon [M⁻¹ s⁻¹]
1 | B1 | 15.9 | 0.00441 | 278000
2 | B2 | 28.4 | 0.0028 | 98600
